Earlier results on one substance are cited in paper PMC8777194.

As usually defined, the Kd is the constant that tells how readily two partners part at equilibrium.

This series deals with Leader protein L L (Encephalomyocarditis virus) (UniProt P03304).

For the substance 2A protein 2A (from UniProt P03304), the Kd is 1.5 µM.
